Target: YB-1 (expressed from YB-1/RSV) (Homo sapiens) (UniProt P67809)
Assay: cell_activity
Conditions: human glioblastoma cells

Row | Substance | activity (relative CAT activity) (repression, empty vector pRc/RSV = 1.0) | activity (relative CAT activity) (no repression, empty vector pRc/RSV = 1.1)
1 | COL1A2 promoter -161 to +57 CAT binding reporter | 0.6 | –
2 | COL1A2 promoter -161 to +57 CAT non-binding reporter | – | 1

Source: US20020091083
